Peptide text beside a SMILES is read from it. * marks the point of attachment. X1 = O=C(c1nn(Cc2ccc(Cl)cc2Cl)c2ccccc12)*; Cyclenylacetyl = O=C(CN1CCNCCNCCNCC1)*; NBD = O=[N+]([O-])c1ccc(*)c2nonc12; βAla = NCCC(=O)O
Columns and labels:
[1] = system: MCF-7 cells; test: ATP content (luminescent assay); format: cell-based; conditions: 50 μM, 24 h, per cell, control = 100%, mean n = 5
Procedure: MCF-7 cells with a density of 5000 cells/well were seeded in 96-well plates, and then were cultured at the incubators for 24 h at 37 °C under 5% CO2. After co-incubation with different forms of drugs for another 24 h, the growth medium was removed, and the wells were washed twice with PBS. The cell number of each group was counted before all the measurements. After dissociation and centrifugation, the liquid supernatant was collected for the following analysis of the HK activity and the lactate content. The hexokinase (HK) activity of the cells in each group was determined by the OD340 absorbance according to the specification of the HK activity assay kit (Solarbio, BC0745). The intracellular lactate content was detected using an L-lactate assay kit (Promega, J5021) and depended on the OD565 absorbance. A luminescent ATP detection assay kit (Abcam, ab113849) was used to analyze the quantity of ATP. All the data were shown as the mean value in per cell of each group.

[2] = system: MCF-7 cells; test: Annexin V-FITC/PI apoptosis flow cytometry; format: cell-based; conditions: 50 μM, 48 h, Figure 2D
Procedure: of different groups at different doses were calculated. For apoptosis assay, MCF -7 and L929 cells were cultured in 6-well plates at a density of 2 × 10^5 cells per well, then were treated with different forms of drug for 48 h. Afterwards, cells were harvested at 1000 rpm for 5 min and then washed with ice-cold PBS twice. Upon being suspended in 100 μL 1× binding buffer, the samples were incubated with 5 μL of FITC-Annexin- V and 5 μL of PI for 15 min at room temperature in the dark. Finally, the cells were added in 100 μL 1× binding buffer blending gently and analyzed by flow cytometry (Becton Dickinson, NJ, USA) within 1 h.
MCF-7 cancer cells and L929 normal cells with a density of 1×10^5 cells/mL were cultured in confocal chambers and 6-well plates at 37 °C, respectively. After 70% confluence, the cells were treated with fresh medium which contained the same concentrations of LND-Pep-cyclen nanofibers, LND, cyclen, mixture of free LND and cyclen molecules for 12 h. Then, followed by washing twice with PBS and incubated with 1 mL DCFH-DA (10 μM) at 37 °C for 30 min in the dark. The cells in 6-well plates were harvested, washed, re- suspended and then loaded on flow cytometry for quantitate analysis. […] Excitation at 488 nm and signal collection at 525 ± 10 nm for DCFH-DA fluorescence. […]

[3] = system: MCF-7 cells; test: MMP depolarization (JC-1 probe, CLSM); format: cell-based; conditions: 50 μM, 24 h, serum-free medium, JC-1 10 µg/mL 30 min
Procedure: MCF-7 cancer cells with a density of 2 × 10^5 cells/mL were cultured in confocal cuvettes under 5% CO2 at 37 °C. After the number of anchorage-dependent cells reached up to 70%, the cells were incubated with a replaceable serum-free medium containing different forms of the drug (50 μM) for 24 h. This was followed by washing away the drug that was not absorbed and staining with 1 mL JC-1 probe (10 µg/mL) for 30 min in dark. After washing with PBS for three times, the cells were imaged by CLSM to examine the fluorescence intensity of the J-monomers and the J-aggregates.

[4] = system: MCF-7 cells; test: CCK-8 cytotoxicity assay; format: cell-based; conditions: 200 μM, 48 h
Procedure: Circular dichroism (CD) spectra
The secondary structure of LND- Pep-cyclen hydrogel and NBD- Pep-cyclen hydrogel were monitored by a circular dichroism (CD) spectrophotometer (BioLogic, MOS-450, France) system. The self-assembled hydrogel was added into a 0.1 cm quartz spectrophotometer cell (20- C/Q/0.1), then the CD signals were recorded in the 180- 280 nm scanning wavelength range. The final spectrogram was obtained after subtracting the PBS solvent background.
Mammary carcinoma cancer cells (MCF-7 and 4T1), and mouse fibroblast cells normal cells (L929) were all maintained in our lab. These cells were cultured in DMEM (MCF-7) and RPMI 1640 medium (4T1 and L929) supplemented with 10%
FBS and 1% penicillin-streptomycin in a humidified incubator maintained at 37 °C and 5% CO2, respectively.
Cytotoxicity and apoptosis analysis
All kinds of cells were seeded in 96-well plates at a density of 5000 cells per well. After 24 h incubation, the cells were treated with a series of pre-determined doses of LND-Pep-cyclen nanofibers, free LND, free cyclen, mixture of free LND and cyclen molecules for 48 h. After adding 10 μL CCK-8 solution to each well, the cells were incubated at 37 °C for another 4 h. OD450 was measured using a Thermo Scientific™ Varioskan™ LUX (Thermo, CA, USA), and then the cell viability values

[5] = system: MCF-7 cells; test: Colony formation assay / radio-sensitization; format: cell-based; conditions: 10 μM, 12 h, γ-rays 0-6 Gy, multi-target single-hit model, n = 3
Procedure: MCF-7 cells (1,000/well) were seeded in six-well plates and incubated with different forms of drugs at a concentration of 10 μM after 12 h. Subsequently, they were irradiated with γ-rays at doses of 0, 2, 4, and 6 Gy at 36 h. Following this, the cells were continuously cultured with a fresh drug-free medium in an incubator for another 5-8 days. The fixed colonies were then stained using crystal violet (0.25%, ethanol) for subsequently counting the number of colonies, and evaluating the colony inhibition ability of each treatment. Only colonies containing >50 cells were counted and survival curves were plotted with Origin. Furthermore, the SER value was used to compare the efficiencies of the different drugs in improving the sensitivity of the MCF-7 cells to radiotherapy. The SER was determined by a classical multi-target single-hit model using the following equation:
S = 1 - (1 - e ^-D/D0)^n (1)
where S is the survival fraction, D is the radiation dose, D0 is the mean lethal dose, and n is the extrapolation number. D0 and n were calculated using the“GraphPad Prism” software (version 8.0). The final survival fraction curve of each group was obtained by a nonlinear fitting using Origin 2018, and the SER was expressed using the following formulae:
SER = Dq (control group)/Dq (treated group (2)

[6] = system: MCF-7 tumors; test: In vivo anti-tumor evaluation; conditions: MCF-7 tumor bearing nude mice, single i.v. injection, 5 mg/kg LND equivalent, day 14, vs PBS control
Procedure: (§1) MCF-7 cells (1×10^7 cells per mouse) were subcutaneously injected into the breast regions of six-week-old nude mice to establish the tumor model. When the tumor volume grew to approximately 100 mm^3, all the mice were randomly divided into eight groups with seven mice in each group. Except for the control groups, all groups were intravenously administrated with 200 μL of LND-Pep-cyclen nanofibers, free LND, and mixture of free LND and free cyclen (5 mg/kg LND equivalent and 2 mg/kg cyclen equivalent), respectively. After 12 hours, the mice in the chemo-radiotherapy group were exposed to 6 Gy γ-rays. To evaluate the therapeutic efficacy, the tumor size and the body weight were recorded daily. The tumor volumes were measured using a vernier caliper and then calculated using the formula: (width^2×length)/2. On the 14th day, all the mice were euthanized when the tumor volume in the PBS control group reached approximately 1500 mm^3. The tumors and normal tissues including heart, liver, spleen, lung and kidney in each group were carefully collected, photographed, and then fixed in 4% form aldehyde for histological analysis.

[7] = H&E histology of major organs after treatment; format: in vivo, nude mice; conditions: single administration, compared with control group (Figure S22)
Procedure: as §1

[8] = Bio-compatibility evaluation (hematology, blood biochemistry); format: in vivo; conditions: BALB/c mice, 20 mg/kg i.v. at day 0, 7, 14, 21 (four injections), n = 5
Procedure: Cambridge, UK), anti-Bcl-2 (1:1000, Abcam, Cambridge, UK), anti-smac and anti-GAPDH antibody. After washing with 1 ×TBST, membranes were incubated with corresponding secondary antibody for 1 h at room temperature. The membranes were washed 3 times by 1 ×TBST and illuminated by an enhanced chemiluminescent (ECL) kit (Pierce™ ECL Western Blotting Substrate, Thermo Scientific, Rockford, IL, USA) on a Bio- Rad film (Sigma-Aldrich, St. Louis, MO, USA).
Bio-compatibility evaluation
Six-week-old BALB/c mice were randomly assigned to two groups and intravenously administrated with 200 μL of LND-Pep-cyclen nanofibers (20 mg/kg) and PBS at 0 day, 7 day, 14 day, 21 day. All the mice were sacrificed at the last time point, followed by collecting the whole body blood for the hematology and blood

[9] = system: MCF-7 cells; format: cell-based
Procedure: To confirm our hypothesis, we subsequently used a fluorescent molecule of 7-nitrobenzo-2-oxa-1,3-diazole (NBD), to replace LND, resulting in another peptide conjugate of NBD-GFFYK-cyclen (NBD-Pep-cyclen). […] Therefore, the NBD-Pep-cyclen conjugate could be very qualified as a substitute for LND-Pep-cyclen to verify its mitochondrial targeting performance. After incubation with MCF-7 cells for 4 hours, the cellular distribution of the NBD-Pep-cyclen nanofibers was investigated. […] The endocytosis mechanism for the cellular uptake was investigated using several well-established endocytotic inhibitors. […] In contrast, the addition of NaN3 (an inhibitor of energy-dependent endocytosis) and chlorpromazine (an inhibitor of clathrin-mediated endocytosis) reduced the uptake to less than 50%. […]
Figure S9 (A) CLSM images of MCF-7 cells treated with NBD-Pep-cyclen
nanofibers in the absence and presence of endocytotic inhibitors. […]

[10] = system: MCF-7 and L929 cells; test: Flow cytometry of NBD accumulation in cancer versus normal cells; format: cell-based; conditions: 50 μM, 4 h, flow cytometry MFI, n = 3

**Q.** Which results are given for `O=C(O)c1nn(Cc2ccc(Cl)cc2Cl)c2ccccc12` [LND, Lonidamine]?
**A.** ATP content, of control [1]: 60%; Cells in lower right quadrant (PI / Annexin V-FITC plot); early apoptosis rate [2]: 1.45%; MMP depolarization [3]: very limited effect; Cell survival rate [4]: 50%; SER (sensitization enhancement ratio) [5]: 1.78; Tumor growth / final tumor volume, chemotherapy only [6]: barely inhibit the tumor growth

**Q.** With `O=C(CN1CCNCCNCCNCC1)NCCCC[C@H](NC(=O)[C@H](Cc1ccc(O)cc1)NC(=O)[C@H](Cc1ccccc1)NC(=O)[C@H](Cc1ccccc1)NC(=O)CNC(=O)c1nn(Cc2ccc(Cl)cc2Cl)c2ccccc12)C(=O)O` [LND-Pep-cyclen] (X1-GFFYK(Cyclenylacetyl)-OH) as the molecule, how does the “Histological changes in liver, spleen, kidney, heart, lung (H&E)” value [7] read?
**A.** The value was “no appreciable inflammatory damage and tissue damage”.

**Q.** And the “Liver and kidney indices (ALT, AST, TBIL, BUN)” value ([8]; vs control)?
**A.** The value was “normal with no relevant difference”.

**Q.** And the Blood routine values ([8]; vs untreated control)?
**A.** Its Blood routine values is “no apparent variations”.

**Q.** Which “Cellular uptake in presence of NaN3” value [9] does the source give for `O=C(CCNc1ccc([N+](=O)[O-])c2nonc12)NCC(=O)N[C@@H](Cc1ccccc1)C(=O)N[C@@H](Cc1ccccc1)C(=O)N[C@@H](Cc1ccc(O)cc1)C(=O)N[C@@H](CCCCNC(=O)CN1CCNCCNCCNCC1)C(=O)O` [NBD-Pep-cyclen] ({NBD-βAla}-GFFYK(Cyclenylacetyl)-OH) here?
**A.** The value was “less than 50%”.

**Q.** What about the “Cellular uptake in presence of chlorpromazine” value [9] of the same molecule?
**A.** Its value is “less than 50%”.

**Q.** And the “Cellular uptake in presence of nystatin” value [9]?
**A.** Its value is “barely affected”.

**Q.** And the “Cellular uptake in presence of wortmannin” value [9]?
**A.** Its value is “barely affected”.

**Q.** And the “NBD fluorescence intensity in MCF-7 cells relative to L929 cells” value [10]?
**A.** Its value is “more than two-folds”.

— paper PMC8771563, “Mitochondrion-targeted supramolecular “nano-boat” simultaneously inhibiting dual energy metabolism for tumor selective and synergistic chemo-radiotherapy” (Theranostics, 2022)
